Results taken from the supplement of paper PMC7877785.
± gives the uncertainty stated by the source.

Test: self-splicing fitness, log relative to wild type (ln ratio); higher = more splicing; Tetrahymena group I intron in knt gene, E. coli kanamycin selection, DiMSum; sequences stand for … in CUCUCU…GGAGGGAAAAGUUAUCAGGCAUGCACCUGGUAGCUAGUCUUUAAACCAAUAGAUUGCAUCGGUUUAAAAGGCAAGACCGUCAAAUUGCGGGAAAGGGGUCAACAGCCGUUCAGUACCAAGUCUCAGGGGAAACUUUGAGAUGGCCUUGCAAAGGGUAUGGUAAUAAGCUGACGGACAUGGUCCUAACCACGCAGCCAAGUCCUAAGUCAACAGAUCUUCUGUUGAUAUGGAUGCAGUUCACAGACUAAAUGUCGGUCGGGGAAGAUGUAUUCUUCUCAUAAGAUAUAGUCGGACCUCUCCUUAAUGGGAGCUAGCGGAUGAAGUGAUGCAACACUGGAGCCGCUGGGAACUAAUUUGUAUGCGAAAGUAUAUUGAUUAGUUUUGGAGUACUCGUGGUCG
Procedure, shortened: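 A randomised library covering all eight P1ex-region intron nucleotides was built with the intron in the knt kanamycin-resistance gene on pET-22b(+) and held in E. coli BL21(DE3). Cells were grown overnight at 37°C or 30°C on LB agar, with or without 25 μg/mL kanamycin, plus 100 μg/mL carbenicillin, 50 μM IPTG and 0.2% rhamnose, and pooled colonies were amplicon-sequenced on an Illumina HiSeq 2500. DiMSum fitness is the error-weighted combination of wild-type-normalised replicate fold changes, kanamycin versus none.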

| Sequence | self-splicing fitness (ln) (30 °C) | self-splicing fitness (ln) (37 °C) |
| --- | --- | --- |
| AUGCAGCAAUAUUACGUUAA | -2.58 ± 0.1 | -1.71 ± 0.094 |
| AUGCAGCAAUAUUACGUUUA | -2.04 ± 0.095 | -1.21 ± 0.089 |
| AUGGAGCAAUAUUACGAACG | -2.21 ± 0.25 | -2.35 ± 0.5 |
| AUGGAGCAAUAUUACGAAUG | -3.6 ± 0.34 | -2.35 ± 0.18 |
| AUGGAGCAAUAUUACGAAUU | -3.14 ± 0.47 | -1.14 ± 0.25 |
| AUGGAGCAAUAUUACGAGAU | -3.73 ± 0.28 | -1.96 ± 0.2 |
| AUGGAGCAAUAUUACGAUGA | -2.98 ± 0.41 | -1.36 ± 0.46 |
| AUGGAGCAAUAUUACGCUGC | – | -2.95 ± 0.38 |
| AUGGAGCAAUAUUACGCUUG | -1.46 ± 0.12 | -0.294 ± 0.12 |
| AUGGAGCAAUAUUACGGAUC | -2.51 ± 0.25 | -2.57 ± 0.36 |
| AUGGAGCAAUAUUACGGCAC | -1.14 ± 0.37 | -0.0162 ± 0.42 |
| AUGGAGCAAUAUUACGGCCU | -1.32 ± 0.19 | -0.862 ± 0.24 |
| AUGGAGCAAUAUUACGGGAA | -2.71 ± 0.2 | -2.33 ± 0.17 |
| AUGGAGCAAUAUUACGGGCU | – | -1.55 ± 0.41 |
| AUGGAGCAAUAUUACGUAAA | -3.85 ± 0.26 | -2.09 ± 0.26 |
| AUGGAGCAAUAUUACGUAAU | -0.694 ± 0.15 | -0.189 ± 0.12 |
| AUGGAGCAAUAUUACGUAGU | -2.7 ± 0.11 | -1.62 ± 0.097 |
| AUGGAGCAAUAUUACGUCUA | -1.38 ± 0.23 | -0.778 ± 0.19 |
| AUGGAGCAAUAUUACGUCUG | -2.81 ± 0.24 | -2.04 ± 0.25 |
| AUGGAGCAAUAUUACGUGAA | -2.92 ± 0.27 | -2.03 ± 0.42 |
| AUGGAGCAAUAUUACGUUCG | -1.89 ± 0.14 | -0.826 ± 0.19 |
| AUGGAGCAAUAUUACGUUUU | -3.1 ± 0.36 | -2.05 ± 0.31 |
| AUGUAGCAAUAUUACGAAAA | -0.961 ± 0.34 | -0.547 ± 0.31 |
| AUGUAGCAAUAUUACGAACG | -1.27 ± 0.13 | -0.894 ± 0.16 |
| AUGUAGCAAUAUUACGAAGG | -3.73 ± 0.34 | -2.61 ± 0.3 |

| Sequence | self-splicing fitness (ln) (30 °C) | self-splicing fitness (ln) (37 °C) |
| --- | --- | --- |
| AUGUAGCAAUAUUACGAGCA | -1.07 ± 0.11 | -1.07 ± 0.12 |
| AUGUAGCAAUAUUACGAGGC | – | -1.47 ± 0.28 |
| AUGUAGCAAUAUUACGAGUG | -2.52 ± 0.12 | -2.72 ± 0.18 |
| AUGUAGCAAUAUUACGAUAA | -1.76 ± 0.13 | -1 ± 0.15 |
| AUGUAGCAAUAUUACGAUAC | -3.33 ± 0.28 | -1.82 ± 0.21 |
| AUGUAGCAAUAUUACGAUGC | -1.49 ± 0.11 | -0.827 ± 0.16 |
| AUGUAGCAAUAUUACGCAAC | -2.69 ± 0.45 | -0.382 ± 0.27 |
| AUGUAGCAAUAUUACGCACG | -1.02 ± 0.11 | 0.147 ± 0.14 |
| AUGUAGCAAUAUUACGCAGC | -2.64 ± 0.37 | -0.433 ± 0.17 |
| AUGUAGCAAUAUUACGCAUA | -2.46 ± 0.28 | -1.85 ± 0.26 |
| AUGUAGCAAUAUUACGCCUA | -0.493 ± 0.17 | 0.198 ± 0.23 |
| AUGUAGCAAUAUUACGCGGG | -4.31 ± 0.33 | -2.37 ± 0.2 |
| AUGUAGCAAUAUUACGCUCU | -1.95 ± 0.13 | -0.655 ± 0.17 |
| AUGUAGCAAUAUUACGGACA | -0.611 ± 0.083 | 0.202 ± 0.12 |
| AUGUAGCAAUAUUACGGAUA | -1.43 ± 0.16 | -1.83 ± 0.28 |
| AUGUAGCAAUAUUACGGCAC | -1.59 ± 0.18 | 0.329 ± 0.18 |
| AUGUAGCAAUAUUACGGCUG | -1.95 ± 0.14 | -2.27 ± 0.28 |
| AUGUAGCAAUAUUACGGGAU | -1.9 ± 0.12 | -1.33 ± 0.2 |
| AUGUAGCAAUAUUACGUAAU | -1.21 ± 0.11 | -0.524 ± 0.12 |
| AUGUAGCAAUAUUACGUCCG | -2.71 ± 0.13 | -1.39 ± 0.12 |
| AUGUAGCAAUAUUACGUCUA | -1.25 ± 0.14 | -0.893 ± 0.15 |
| AUGUAGCAAUAUUACGUGUC | -3.79 ± 0.31 | -2.81 ± 0.26 |
| AUGUAGCAAUAUUACGUUGA | -3.43 ± 0.29 | -1.35 ± 0.22 |
| AUGUAGCAAUAUUACGUUUA | -2.38 ± 0.13 | -1.86 ± 0.12 |
| AUUAAGCAAUAUUACGAAUA | -1.29 ± 0.21 | -0.938 ± 0.21 |

| Sequence | self-splicing fitness (ln) (30 °C) | self-splicing fitness (ln) (37 °C) |
| --- | --- | --- |
| AUUAAGCAAUAUUACGAGAA | – | -1.08 ± 0.38 |
| AUUAAGCAAUAUUACGAGAU | -2.99 ± 0.21 | -1.47 ± 0.16 |
| AUUAAGCAAUAUUACGAGCU | -0.659 ± 0.14 | -0.821 ± 0.2 |
| AUUAAGCAAUAUUACGAGUU | -2.42 ± 0.17 | -1.27 ± 0.22 |
| AUUAAGCAAUAUUACGCGCG | -0.63 ± 0.13 | -0.752 ± 0.17 |
| AUUAAGCAAUAUUACGCGGC | – | -2.33 ± 0.31 |
| AUUAAGCAAUAUUACGCUGU | -3.23 ± 0.16 | -1.97 ± 0.19 |
| AUUAAGCAAUAUUACGCUUU | -2.38 ± 0.24 | -1.24 ± 0.32 |
| AUUAAGCAAUAUUACGGCUG | -0.405 ± 0.083 | -0.233 ± 0.1 |
| AUUAAGCAAUAUUACGGGGU | -4.11 ± 0.24 | -2.83 ± 0.2 |
| AUUAAGCAAUAUUACGGUUA | -1.18 ± 0.095 | -1.19 ± 0.085 |
| AUUAAGCAAUAUUACGUAAG | -0.562 ± 0.12 | -0.864 ± 0.19 |
| AUUAAGCAAUAUUACGUCUG | -1.74 ± 0.11 | -0.762 ± 0.12 |
| AUUAAGCAAUAUUACGUGAU | -1.74 ± 0.089 | -1.34 ± 0.12 |
| AUUAAGCAAUAUUACGUGCA | -1.03 ± 0.089 | -0.282 ± 0.11 |
| AUUAAGCAAUAUUACGUGUC | -3.58 ± 0.21 | -1.02 ± 0.16 |
| AUUCAGCAAUAUUACGAAUG | -1.54 ± 0.11 | -0.673 ± 0.13 |
| AUUCAGCAAUAUUACGACAA | -0.461 ± 0.15 | -0.889 ± 0.19 |
| AUUCAGCAAUAUUACGACUC | -0.805 ± 0.19 | 0.11 ± 0.19 |
| AUUCAGCAAUAUUACGAGAU | -2.7 ± 0.17 | -0.722 ± 0.13 |
| AUUCAGCAAUAUUACGCCUC | -1.43 ± 0.15 | 0.286 ± 0.16 |
| AUUCAGCAAUAUUACGCGUG | -1.25 ± 0.054 | -0.218 ± 0.069 |
| AUUCAGCAAUAUUACGGCUA | 0.293 ± 0.09 | -0.022 ± 0.084 |
| AUUCAGCAAUAUUACGUAAA | -0.737 ± 0.08 | -0.148 ± 0.12 |
| AUUCAGCAAUAUUACGUAGG | -1.64 ± 0.13 | -0.941 ± 0.17 |

| Sequence | self-splicing fitness (ln) (30 °C) | self-splicing fitness (ln) (37 °C) |
| --- | --- | --- |
| AUUCAGCAAUAUUACGUCUG | -2.09 ± 0.11 | -1.33 ± 0.11 |
| AUUCAGCAAUAUUACGUGAU | -0.92 ± 0.061 | -0.187 ± 0.078 |
| AUUCAGCAAUAUUACGUUCU | -0.926 ± 0.074 | -0.163 ± 0.1 |
| AUUCAGCAAUAUUACGUUGU | -3.14 ± 0.15 | -2.3 ± 0.21 |
| AUUCAGCAAUAUUACGUUUA | -1.18 ± 0.12 | -0.911 ± 0.11 |
| AUUGAGCAAUAUUACGAAAC | -2.48 ± 0.45 | – |
| AUUGAGCAAUAUUACGAACU | -1.9 ± 0.23 | -0.643 ± 0.2 |
| AUUGAGCAAUAUUACGACAU | -0.372 ± 0.013 | -0.153 ± 0.033 |
| AUUGAGCAAUAUUACGACGG | -4.09 ± 0.31 | -3.4 ± 0.26 |
| AUUGAGCAAUAUUACGAGAA | -2.35 ± 0.45 | -2.62 ± 0.26 |
| AUUGAGCAAUAUUACGAUAA | – | -2.14 ± 0.4 |
| AUUGAGCAAUAUUACGAUAG | -4.02 ± 0.28 | -3.03 ± 0.3 |
| AUUGAGCAAUAUUACGCGCG | -3.04 ± 0.21 | -2.22 ± 0.16 |
| AUUGAGCAAUAUUACGCUGA | -3.1 ± 0.36 | -2.27 ± 0.29 |
| AUUGAGCAAUAUUACGGGAA | -3.22 ± 0.37 | -3.86 ± 0.46 |
| AUUGAGCAAUAUUACGGGGU | -3.33 ± 0.25 | -3.44 ± 0.27 |
| AUUGAGCAAUAUUACGGUUU | -3.23 ± 0.21 | -2.16 ± 0.22 |
| AUUGAGCAAUAUUACGUAUG | -3.63 ± 0.46 | – |
| AUUGAGCAAUAUUACGUGAA | -2.5 ± 0.15 | -1.74 ± 0.27 |
| AUUGAGCAAUAUUACGUGCA | -2.91 ± 0.15 | -1.85 ± 0.14 |
| AUUGAGCAAUAUUACGUGGA | -2.87 ± 0.26 | -1.61 ± 0.21 |
| AUUGAGCAAUAUUACGUUCA | -1.59 ± 0.17 | -0.11 ± 0.17 |
| AUUGAGCAAUAUUACGUUUC | – | -2.57 ± 0.48 |
